From the supplement of paper PMC7877785
± gives the uncertainty stated by the source.

Experiment: self-splicing fitness, log relative to wild type (ln ratio); higher = more splicing; Tetrahymena group I intron in knt gene, E. coli kanamycin selection, DiMSum; sequences stand for … in CUCUCU…GGAGGGAAAAGUUAUCAGGCAUGCACCUGGUAGCUAGUCUUUAAACCAAUAGAUUGCAUCGGUUUAAAAGGCAAGACCGUCAAAUUGCGGGAAAGGGGUCAACAGCCGUUCAGUACCAAGUCUCAGGGGAAACUUUGAGAUGGCCUUGCAAAGGGUAUGGUAAUAAGCUGACGGACAUGGUCCUAACCACGCAGCCAAGUCCUAAGUCAACAGAUCUUCUGUUGAUAUGGAUGCAGUUCACAGACUAAAUGUCGGUCGGGGAAGAUGUAUUCUUCUCAUAAGAUAUAGUCGGACCUCUCCUUAAUGGGAGCUAGCGGAUGAAGUGAUGCAACACUGGAGCCGCUGGGAACUAAUUUGUAUGCGAAAGUAUAUUGAUUAGUUUUGGAGUACUCGUGGUCG
How it was run: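 Fitness was computed with DiMSum as the error-weighted combination of replicate fold changes, kanamycin versus none, each normalised to wild type. The library randomised all eight intron nucleotides of the P1ex region, with the intron placed in the knt kanamycin-resistance gene on pET-22b(+) in E. coli BL21(DE3). Six replicate transformations were grown overnight at 37°C or 30°C on LB agar with or without 25 μg/mL kanamycin, plus 100 μg/mL carbenicillin, 50 μM IPTG and 0.2% rhamnose. Pooled colonies were amplicon-sequenced on an Illumina HiSeq 2500.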

Row | Sequence | self-splicing fitness (ln) (37 °C) | self-splicing fitness (ln) (30 °C)
1 | AGUAAGCAAUAUUACGCCUC | -1.7 ± 0.38 | 
2 | UCCUAGCAAUAUUACGUGGU | -1.38 ± 0.096 | -2.53 ± 0.1
3 | UAAUAGCAAUAUUACGUUUC | -1.35 ± 0.23 | -2.95 ± 0.45
4 | AUACAGCAAUAUUACGUUAC | -2.79 ± 0.27 | -3.94 ± 0.25
5 | UUAGAGCAAUAUUACGCUAC |  | -2.9 ± 0.41
6 | GAUUAGCAAUAUUACGACGG | -2.39 ± 0.33 | 
7 | CAAGAGCAAUAUUACGCAGA | -2.12 ± 0.16 | -3.45 ± 0.19
8 | GCACAGCAAUAUUACGCUAA | -0.281 ± 0.089 | -1.6 ± 0.092
9 | AGAUAGCAAUAUUACGCAAA | -1.75 ± 0.24 | -2.81 ± 0.23
10 | GCUAAGCAAUAUUACGUCUA | -0.911 ± 0.12 | -0.793 ± 0.095
11 | UUCCAGCAAUAUUACGUGUC | -1.48 ± 0.098 | -2.18 ± 0.086
12 | CGGUAGCAAUAUUACGCACU | 0.00723 ± 0.27 | -1.64 ± 0.26
13 | CACUAGCAAUAUUACGCUUG | -0.991 ± 0.13 | -2.03 ± 0.16
14 | GCAGAGCAAUAUUACGGGGG | -3.56 ± 0.39 | -3.1 ± 0.34
15 | CCGGAGCAAUAUUACGGGCG | -1 ± 0.15 | -1.36 ± 0.11
16 | UUUUAGCAAUAUUACGCCAG |  | -2.13 ± 0.47
17 | UACCAGCAAUAUUACGCUCA | 0.378 ± 0.081 | 0.178 ± 0.073
18 | CGCAAGCAAUAUUACGAUCC | -1.36 ± 0.19 | -1.71 ± 0.12
19 | ACACAGCAAUAUUACGUCGC | -2.56 ± 0.17 | -4.02 ± 0.21
20 | CACCAGCAAUAUUACGGAGU | -2.54 ± 0.15 | -3.74 ± 0.18

Row | Sequence | self-splicing fitness (ln) (37 °C) | self-splicing fitness (ln) (30 °C)
21 | CUUUAGCAAUAUUACGUCAG | -0.4 ± 0.13 | -1.03 ± 0.12
22 | AUCUAGCAAUAUUACGAUGU | -0.0281 ± 0.11 | -0.781 ± 0.08
23 | UAGGAGCAAUAUUACGCGCG | -1.29 ± 0.14 | -0.62 ± 0.11
24 | AAUGAGCAAUAUUACGGAUG | -2.23 ± 0.22 | -3.35 ± 0.17
25 | AUGAAGCAAUAUUACGGGUU | -1.07 ± 0.12 | -1.62 ± 0.11
26 | ACGUAGCAAUAUUACGUUAG | -2.13 ± 0.15 | -3.99 ± 0.16
27 | ACAUAGCAAUAUUACGCAUC | -1.3 ± 0.14 | -3.98 ± 0.34
28 | GUGGAGCAAUAUUACGUGGG | -2.7 ± 0.33 | -2.28 ± 0.13
29 | ACUUAGCAAUAUUACGGACG | -0.553 ± 0.12 | -1.59 ± 0.1
30 | GGGCAGCAAUAUUACGCCGU | -1.01 ± 0.15 | -2.84 ± 0.21
31 | CAACAGCAAUAUUACGUUCG | -0.171 ± 0.065 | -0.959 ± 0.051
32 | CUGGAGCAAUAUUACGAUUG | 0.00165 ± 0.13 | -1.87 ± 0.12
33 | UCAAAGCAAUAUUACGUUCC |  | -2.89 ± 0.38
34 | GCGUAGCAAUAUUACGCUUG | -2.26 ± 0.33 | 
35 | AGAAAGCAAUAUUACGGUCU | -0.58 ± 0.09 | -1.11 ± 0.082
36 | CAUGAGCAAUAUUACGUUUA | -2.84 ± 0.2 | -3.69 ± 0.21
37 | ACGUAGCAAUAUUACGUGGA | -2.2 ± 0.23 | -3.46 ± 0.32
38 | GAUAAGCAAUAUUACGUAAG | -0.896 ± 0.11 | -2.38 ± 0.088
39 | GGAAAGCAAUAUUACGGGUU | -0.727 ± 0.11 | -2.99 ± 0.13
